Results: IntAct's records for PubMed 30721249

B1: Oxysterol-binding protein-related protein 1 (Homo sapiens), Q9BXW6 (parent)
chain: MNTEAEQQLLHHARNGNAEEVRQLLETMARNEVIADINCKGRSKSNLGWTPLHLACYFGHRQVVQDLLKAGAEVNVLNDMGDTPLHRAAFTGRKELVMLLLEYNADTTIVNGSGQTAKEVTHAEEIRSMLEAVERTQQRKLEELLLAAAREGKTTELTALLNRPNPPDVNCSDQLGNTPLHCAAYRAHKQCALKLLRSGADPNLKNKNDQKPLDLAQGAEMKHILVGNKVIYKALKRYEGPLWKSSRFFGWRLFWVVLEHGVLSWYRKQPDAVHNIYRQGCKHLTQAVCTVKSTDSCLFFIKCFDDTIHGFRVPKNSLQQSREDWLEAIEEHSAYSTHYCSQDQLTDEEEEDTVSAADLKKSLEKAQSCQQRLDREISNFLKMIKECDMAKEMLPSFLQKVEVVSEASRETCVALTDCLNLFTKQEGVRNFKLEQEQEKNKILSEALETLATEHHELEQSLVKGSPPASILSEDEFYDALSDSESERSLSRLEAVTARSFEEEGEHLGSRKHRMSEEKDCGGGDALSNGIKKHRTSLPSPMFSRNDFSIWSILRKCIGMELSKITMPVIFNEPLSFLQRLTEYMEHTYLIHKASSLSDPVERMQCVAAFAVSAVASQWERTGKPFNPLLGETYELVRDDLGFRLISEQVSHHPPISAFHAEGLNNDFIFHGSIYPKLKFWGKSVEAEPKGTITLELLEHNEAYTWTNPTCCVHNIIVGKLWIEQYGNVEIINHKTGDKCVLNFKPCGLFGKELHKVEGYIQDKSKKKLCALYGKWTECLYSVDPATFDAYKKNDKKNTEEKKNSKQMSTSEELDEMPVPDSESVFIIPGSVLLWRIAPRPPNSAQMYNFTSFAMVLNEVDKDMESVIPKTDCRLRPDIRAMENGEIDQASEEKKRLEEKQRAARKNRSKSEEDWKTRWFHQGPNPYNGAQDWIYSGSYWDRNYFNLPDIY

Variants of: B1
Details: with rab7a_human RAB7A

| effect of a mutation on the interaction | Variant |
| --- | --- |
| disrupting interaction strength | F58E |
